According to US20090180995A1, “NOVEL ANTICOAGULANT POLYPEPTIDES AND COMPLEX” (National University of Singapore, priority 2005, published 2009):
“And” between values parts separate entries of the source, which are not always exact repeats. Identical values can stand only once.

Legend:
Chymotrypsin = test: Serine protease specificity, chymotrypsin; assay type: biochemical; details: chymotrypsin (0.4 nM)/S-2586
Method: (§1) Serine protease specificity—The selectivity profile of anticoagulant proteins and their complex was examined against 12 serine proteases—procoagulant serine proteases (FIXa, FXa, FXIa, FXIIa, plasma kallikrein and thrombin), anticoagulant serine protease (APC), fibrinolytic serine proteases (urokinase, t-PA and plasmin) and classical serine proteases (trypsin and chymotrypsin). Various concentrations of purified hemextin A/hemextin B and reconstituted hemextin AB complex were preincubated with each of the enzymes (Table 1) for a period of five minutes at a temperature of 37° C., followed by the addition of appropriate chromogenic substrate.
(§2) For studies with FXIa, kallikrein and urokinase, the appropriate substrates were determined prior to their screening against the inhibitors. For FXIa, the Vmax for the amidolytic activity corresponding to the chromogenic substrates S-2266, S-2302 and S-2366 was determined. S-2302 was the substrate with the highest Vmax and thus was used in the screening studies. Similar studies with kallikrein and urokinase were carried out with substrates S-2266, S-2302 and S-2288 for kallikrein and S-2444 and S-2484 for urokinase. In a total volume of 200 μl in the individual wells of the microtiter plate, final concentrations of FVIIa (300 nM)/S-2288, FVIIa-sTF (30 nM)/S-2288, FXa (0.75 nM)/S-2765, α-thrombin (0.66 nM)/S-2238, plasmin (2 nM)/S-2366, FIXa (3 μM)/spectrozyme®fIXa, FXIa (0.34 nM)/S-2366, FXIIa (0.4 nM)/S-2302, recombinant tissue plasminogen activator (80 nM)/S-2288, activated protein C (0.34 nM)/S-2366, urokinase/S-2444, plasma kallikrein (0.4 nM)/S-2302, trypsin (2.17 nM)/S-2222 and chymotrypsin (0.4 nM)/S-2586 were measured. The kinetic rate of substrate hydrolysis (mOD/min) was measured over 5 min.

Thrombin = biological target: T1, Thrombin (Homo sapiens, UniProt P00734); test: Serine protease specificity, thrombin; assay type: biochemical; details: α-thrombin (0.66 nM)/S-2238
T1 construct: FXa performs a proteolytic cleavage of prothrombin to thrombin
Method: as §1, §2

APC = APC (Homo sapiens, UniProt P04070); test: Serine protease specificity, APC; assay type: biochemical; details: activated protein C (0.34 nM)/S-2366
Sequence of APC (P04070 43-197 limits assumed): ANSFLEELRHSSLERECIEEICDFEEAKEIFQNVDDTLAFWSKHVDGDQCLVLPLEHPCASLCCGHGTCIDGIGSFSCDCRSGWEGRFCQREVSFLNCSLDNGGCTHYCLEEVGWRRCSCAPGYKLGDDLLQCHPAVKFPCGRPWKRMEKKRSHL
Sequence of APC (P04070 212-461 limits assumed): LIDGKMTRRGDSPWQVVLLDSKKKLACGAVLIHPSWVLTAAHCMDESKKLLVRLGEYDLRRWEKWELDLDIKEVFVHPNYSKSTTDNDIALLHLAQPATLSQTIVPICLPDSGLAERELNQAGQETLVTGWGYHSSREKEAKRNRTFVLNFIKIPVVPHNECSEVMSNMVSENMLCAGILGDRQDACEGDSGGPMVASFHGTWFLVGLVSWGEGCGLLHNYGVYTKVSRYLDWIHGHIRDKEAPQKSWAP
Method: as §1, §2

Plasmin = Plasmin (Homo sapiens, UniProt P00747); test: Serine protease specificity, plasmin; assay type: biochemical; details: plasmin (2 nM)
Sequence of Plasmin (P00747 581-810 limits assumed, species assumed): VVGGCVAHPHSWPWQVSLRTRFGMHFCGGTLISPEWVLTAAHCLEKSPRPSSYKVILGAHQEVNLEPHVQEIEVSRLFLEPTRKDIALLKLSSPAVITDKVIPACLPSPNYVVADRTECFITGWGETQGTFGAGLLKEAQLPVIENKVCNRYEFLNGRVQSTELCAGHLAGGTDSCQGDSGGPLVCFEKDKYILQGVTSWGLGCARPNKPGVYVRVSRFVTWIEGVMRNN
Sequence of Plasmin (P00747 97-580 limits assumed, species assumed): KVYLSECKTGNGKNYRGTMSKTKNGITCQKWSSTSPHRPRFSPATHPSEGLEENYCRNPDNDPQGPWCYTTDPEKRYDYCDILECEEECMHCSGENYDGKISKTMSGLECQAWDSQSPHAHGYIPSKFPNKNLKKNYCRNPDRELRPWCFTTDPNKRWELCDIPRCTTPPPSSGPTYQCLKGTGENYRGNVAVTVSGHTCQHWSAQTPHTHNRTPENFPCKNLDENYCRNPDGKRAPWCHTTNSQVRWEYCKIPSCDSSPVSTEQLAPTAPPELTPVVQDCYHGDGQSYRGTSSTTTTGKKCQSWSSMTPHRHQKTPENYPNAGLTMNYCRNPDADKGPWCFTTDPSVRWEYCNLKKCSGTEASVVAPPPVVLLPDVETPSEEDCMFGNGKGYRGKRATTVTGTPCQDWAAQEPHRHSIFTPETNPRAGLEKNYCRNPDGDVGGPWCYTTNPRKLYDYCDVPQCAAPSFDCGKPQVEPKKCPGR
Method: as §1, §2

FVIIa = biological target: T2, FVIIa (Homo sapiens, UniProt P08709); test: FVIIa amidolytic activity; assay type: biochemical; details: absence of sTF; for inhibition of FVIIa amidolytic activity: FVIIa (300 nM)/S-2288
T2 construct: from tissue; host or cells: human plasma
T2 sequence (P08709 61-212 limits assumed): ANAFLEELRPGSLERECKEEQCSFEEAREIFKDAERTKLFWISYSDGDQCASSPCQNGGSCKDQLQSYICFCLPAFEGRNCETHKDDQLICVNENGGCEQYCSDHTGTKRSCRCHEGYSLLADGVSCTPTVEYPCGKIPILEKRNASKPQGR
T2 sequence (P08709 213-466 limits assumed): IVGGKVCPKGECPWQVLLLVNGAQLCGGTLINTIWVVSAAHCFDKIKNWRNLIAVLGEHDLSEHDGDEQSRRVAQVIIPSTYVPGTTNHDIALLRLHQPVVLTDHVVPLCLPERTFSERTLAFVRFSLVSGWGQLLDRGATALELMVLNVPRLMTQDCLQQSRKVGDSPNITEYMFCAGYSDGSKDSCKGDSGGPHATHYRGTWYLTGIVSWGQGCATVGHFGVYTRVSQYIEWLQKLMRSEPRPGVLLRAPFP
Method: as §1, §2

Factor XIa = Factor XIa (Homo sapiens, UniProt P03951); test: Serine protease specificity, FXIa; assay type: biochemical; details: FXIa (0.34 nM)
Sequence of Factor XIa (P03951 388-625 limits assumed): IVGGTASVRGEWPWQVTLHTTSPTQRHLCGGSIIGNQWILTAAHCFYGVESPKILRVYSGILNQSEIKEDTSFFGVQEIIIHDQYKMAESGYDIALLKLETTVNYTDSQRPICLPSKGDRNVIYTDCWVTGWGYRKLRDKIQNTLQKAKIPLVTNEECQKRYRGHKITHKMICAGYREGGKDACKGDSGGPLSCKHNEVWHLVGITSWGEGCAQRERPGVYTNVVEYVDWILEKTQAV
Sequence of Factor XIa (P03951 19-387 limits assumed): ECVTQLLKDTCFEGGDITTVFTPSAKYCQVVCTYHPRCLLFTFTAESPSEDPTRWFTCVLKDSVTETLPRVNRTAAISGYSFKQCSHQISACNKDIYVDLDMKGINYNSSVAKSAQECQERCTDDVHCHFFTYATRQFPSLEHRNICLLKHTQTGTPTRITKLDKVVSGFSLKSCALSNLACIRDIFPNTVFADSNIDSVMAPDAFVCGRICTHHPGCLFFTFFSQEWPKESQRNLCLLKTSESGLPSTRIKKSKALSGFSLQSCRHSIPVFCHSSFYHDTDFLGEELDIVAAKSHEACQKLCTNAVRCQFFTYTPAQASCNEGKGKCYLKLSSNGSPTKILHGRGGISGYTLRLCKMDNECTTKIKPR
Method: as §1, §2

t-PA = t-PA (Homo sapiens, UniProt P00750); test: Serine protease specificity, t-PA; assay type: biochemical; details: recombinant tissue plasminogen activator (80 nM)/S-2288
Sequence of t-PA (P00750 36-562, species assumed): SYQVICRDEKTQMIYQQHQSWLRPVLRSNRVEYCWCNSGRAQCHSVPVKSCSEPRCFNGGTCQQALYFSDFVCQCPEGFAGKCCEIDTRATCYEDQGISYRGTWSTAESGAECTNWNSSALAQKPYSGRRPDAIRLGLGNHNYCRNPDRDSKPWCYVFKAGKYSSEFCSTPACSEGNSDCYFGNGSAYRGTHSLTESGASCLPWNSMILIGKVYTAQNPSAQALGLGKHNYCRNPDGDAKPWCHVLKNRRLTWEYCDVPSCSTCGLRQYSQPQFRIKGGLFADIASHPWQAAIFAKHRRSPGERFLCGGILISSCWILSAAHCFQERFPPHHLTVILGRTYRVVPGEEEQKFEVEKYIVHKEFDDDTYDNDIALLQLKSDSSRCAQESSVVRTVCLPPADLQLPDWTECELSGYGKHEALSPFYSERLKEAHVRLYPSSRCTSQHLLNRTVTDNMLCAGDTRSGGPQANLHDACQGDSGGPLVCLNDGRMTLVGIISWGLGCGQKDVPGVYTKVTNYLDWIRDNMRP
Method: as §1, §2

Factor XIIa = test: Serine protease specificity, FXIIa; assay type: biochemical; details: FXIIa (0.4 nM)/S-2302
Sequence of Factor XIIa (P00748 373-615 limits assumed): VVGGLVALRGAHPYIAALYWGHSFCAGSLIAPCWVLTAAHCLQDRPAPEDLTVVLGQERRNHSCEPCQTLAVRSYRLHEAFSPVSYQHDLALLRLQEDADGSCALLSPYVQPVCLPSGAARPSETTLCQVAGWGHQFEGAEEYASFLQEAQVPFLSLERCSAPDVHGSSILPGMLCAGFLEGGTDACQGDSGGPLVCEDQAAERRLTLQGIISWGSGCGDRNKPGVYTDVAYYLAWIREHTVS
Method: as §1, §2

FXa = FXa (Homo sapiens, UniProt P00742); test: Serine protease specificity, FXa; assay type: biochemical; details: FXa (0.75 nM)/S-2765
Sequence of FXa (P00742 41-179 limits assumed): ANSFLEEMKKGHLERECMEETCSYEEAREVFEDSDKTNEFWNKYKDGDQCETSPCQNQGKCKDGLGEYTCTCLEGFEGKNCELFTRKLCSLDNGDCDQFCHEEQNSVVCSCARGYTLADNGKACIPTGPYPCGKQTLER
Sequence of FXa (P00742 235-488 limits assumed): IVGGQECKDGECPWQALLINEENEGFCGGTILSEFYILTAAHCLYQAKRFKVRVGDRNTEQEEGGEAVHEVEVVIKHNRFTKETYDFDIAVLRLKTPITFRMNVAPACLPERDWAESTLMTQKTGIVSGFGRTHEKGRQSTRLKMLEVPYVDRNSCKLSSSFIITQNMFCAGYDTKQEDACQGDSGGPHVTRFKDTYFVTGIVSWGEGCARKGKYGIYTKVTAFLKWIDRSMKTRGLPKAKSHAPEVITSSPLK
Method: as §1, §2

Trypsin = test: Serine protease specificity, trypsin; assay type: biochemical; details: trypsin (2.17 nM)/S-2222
Method: as §1, §2

[1] = Hydrodynamic diameter by DLS; assay type: physicochemical; details: for hydrodynamic diameter (DLS): 50 mM Tris-HCl buffer (pH 7.4), 25° C.; for hydrodynamic diameter (DLS) in buffers of high ionic strength: 75 mM and 150 mM NaCl
Method: (B) Dynamic Light Scattering (DLS)—Complex formation studies with DLS were carried out at 25° C. using a BI200SM instrument (Brookhaven Instruments Corporation, Holstvile, N.Y., USA). A vertically polarized argon ion laser (514.2 nm, 75 mW; NEC model GLG-3112) was used as the light source. Sample solutions of hemextin A (4 mM), hemextin B (4.1 mM) and hemextin AB complex (2.3 mM) were prepared immediately prior to the experiment. The hydrodynamic diameter for the hemextin AB complex and the individual hemextins were recorded at 25° C. in solutions of different ionic strengths and at different glycerol concentrations. The ionic strengths were varied by the addition of NaCl. From the measured translational diffusion coefficient (DT), the hydrodynamic radius (RH) can be calculated using the Stokes-Einstein relation: […]
where kB is the Boltzmann constant, T is the temperature in Kelvin and η being the viscosity of the solvent. The intensity-intensity time correlation functions were obtained with a BI-9000 digital correlator equipped with the instrument. The particle size and size distribution were obtained by analyzing the field correlation function |g^(1)(τ)| using constrained regularized CONTIN method (73).

Molecule | Observed Effect, chymotrypsin amidolytic activity (Chymotrypsin) | Observed Effect, thrombin amidolytic activity (Thrombin) | Observed Effect, APC amidolytic activity (APC) | Observed Effect, plasmin amidolytic activity (Plasmin) | inhibition of FVIIa amidolytic activity (FVIIa) | Observed Effect, Factor XIa amidolytic activity (Factor XIa) | Observed Effect, t-PA amidolytic activity (t-PA) | Observed Effect, Factor XIIa amidolytic activity (Factor XIIa) | Observed Effect, FXa amidolytic activity (FXa) | Observed Effect, trypsin amidolytic activity (Trypsin) | hydrodynamic diameter (DLS) [1] | hydrodynamic diameter (DLS) in buffers of high ionic strength [1] | IC50 (FVIIa)
hemextin B (protein) LKCKNKVVPFLKCKNKVVPFLCYKMTLKKVPKIPIKRGCTDACPKSSLLVNVMCCKTDKCN | no inhibitory activity | no inhibitory activity | no inhibitory activity | no inhibitory activity | did not exhibit any inhibitory activity | no inhibitory activity | no inhibitory activity | no inhibitory activity | no inhibitory activity | no inhibitory activity | 9.9 nm | No change | –
hemextin A (protein) LKCKNKLVPFLSKTCPEGKNLCYKMTMLKMPKIPIKRGCTDACPKSSLLVKVVCCNKDKCN | no inhibitory activity | no inhibitory activity | no inhibitory activity | no inhibitory activity | potent inhibitory activity | no inhibitory activity | no inhibitory activity | no inhibitory activity | no inhibitory activity | no inhibitory activity | 10.3 nm and 10.4 nm | 11.57 nm | ~105 nM
hemextin AB complex: synergistic 1:1 tetrameric complex of hemextin A and hemextin B, reconstituted from equimolar proteins (protein) chain 1: LKCKNKLVPFLSKTCPEGKNLCYKMTMLKMPKIPIKRGCTDACPKSSLLVKVVCCNKDKCN chain 2: LKCKNKVVPFLKCKNKVVPFLCYKMTLKKVPKIPIKRGCTDACPKSSLLVNVMCCKTDKCN | no inhibitory activity | no inhibitory activity | no inhibitory activity | no inhibitory activity | potent inhibitory activity | no inhibitory activity | no inhibitory activity | no inhibitory activity | no inhibitory activity | no inhibitory activity | 16.8 nm | – | ~105 nM
